Test results published in publication PMC5499551.
Read-outs that look alike come from different tables or passages of the source.

What was measured:
Assay in all cases: EMSA
GATA4 = GATA4 (mouse, UniProt Q08369 1-441)
DMRT1 = DMRT1 (mouse, UniProt Q9QZ59 1-374)
SOX9 [1] = target: T1, SOX9 (UniProt P48436 1-509)
SOX9 [2] = target: T1, SOX9; remark: listed apart in the source

T1 sequence (P48436 whole entry): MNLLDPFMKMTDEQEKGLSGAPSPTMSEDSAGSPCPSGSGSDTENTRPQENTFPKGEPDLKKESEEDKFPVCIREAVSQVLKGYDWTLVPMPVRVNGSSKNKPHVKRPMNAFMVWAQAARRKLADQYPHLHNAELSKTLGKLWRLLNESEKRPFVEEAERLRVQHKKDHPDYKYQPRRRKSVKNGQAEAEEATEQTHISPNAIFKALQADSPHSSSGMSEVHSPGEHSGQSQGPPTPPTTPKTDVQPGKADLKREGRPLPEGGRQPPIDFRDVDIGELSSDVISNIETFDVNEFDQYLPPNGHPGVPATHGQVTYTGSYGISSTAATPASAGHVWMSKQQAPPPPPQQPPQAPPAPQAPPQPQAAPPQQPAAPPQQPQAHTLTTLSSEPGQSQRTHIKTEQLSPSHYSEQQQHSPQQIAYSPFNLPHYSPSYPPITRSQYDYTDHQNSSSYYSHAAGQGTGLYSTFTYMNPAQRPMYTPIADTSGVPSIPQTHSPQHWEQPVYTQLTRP
Sequence of GATA4 (Q08369 whole entry): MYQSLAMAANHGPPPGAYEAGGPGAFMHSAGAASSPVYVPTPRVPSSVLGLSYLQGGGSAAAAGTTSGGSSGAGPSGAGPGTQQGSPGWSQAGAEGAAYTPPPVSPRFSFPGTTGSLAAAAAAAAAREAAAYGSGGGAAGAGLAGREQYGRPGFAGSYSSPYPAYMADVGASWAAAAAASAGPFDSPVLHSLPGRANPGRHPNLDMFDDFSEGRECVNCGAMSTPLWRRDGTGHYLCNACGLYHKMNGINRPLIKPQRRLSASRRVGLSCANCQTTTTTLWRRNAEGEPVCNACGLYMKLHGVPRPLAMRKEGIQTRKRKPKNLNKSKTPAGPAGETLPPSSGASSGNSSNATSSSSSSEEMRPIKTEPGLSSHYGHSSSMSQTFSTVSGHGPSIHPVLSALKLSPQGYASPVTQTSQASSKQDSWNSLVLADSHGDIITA
Sequence of DMRT1 (Q9QZ59 whole entry): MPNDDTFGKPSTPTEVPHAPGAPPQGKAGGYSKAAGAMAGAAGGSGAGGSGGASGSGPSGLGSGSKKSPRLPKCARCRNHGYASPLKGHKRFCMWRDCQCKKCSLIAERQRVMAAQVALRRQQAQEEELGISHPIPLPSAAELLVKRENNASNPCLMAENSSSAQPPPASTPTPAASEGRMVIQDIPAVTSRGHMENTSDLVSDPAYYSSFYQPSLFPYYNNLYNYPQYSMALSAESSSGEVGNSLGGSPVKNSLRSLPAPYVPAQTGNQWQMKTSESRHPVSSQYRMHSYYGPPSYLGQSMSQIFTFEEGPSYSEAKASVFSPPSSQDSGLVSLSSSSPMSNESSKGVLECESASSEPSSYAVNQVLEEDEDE

Row | Binder | binding result (GATA4) | binding result (DMRT1) | binding result (SOX9 [1]) | binding result (SOX9 [2])
1 | Lats2 (dsDNA) DNA 1: GGCCGAGCGGGACATTCGCTACATTGTTGGCATTCCACGGGCG DNA 2: CGCCCGTGGAATGCCAACAATGTAGCGAATGTCCCGCTCGGCC | no binding | binds | binds | –
2 | Lmo4 (dsDNA) DNA 1: GGCATCTCCCATTATTGTTCCAAATCTCATTTCATTTTGAA DNA 2: TTCAAAATGAAATGAGATTTGGAACAATAATGGGAGATGCC | binds | no binding | – | binds
3 | Mrpl45 (dsDNA) DNA 1: GGGTTTTTTTCACCGATTGTAAATAAGGTGTAACAATGTGTTAAGGAACCAGGA DNA 2: TCCTGGTTCCTTAACACATTGTTACACCTTATTTACAATCGGTGAAAAAAACCC | binds | binds | – | binds
